The values below come from the supplement of paper PMC9732359.

This series is described as follows: protein stability index of a GFP-peptide fusion (yeast GPS) (PSI 1-4); higher = more stable; sorted into four equal gates, so the index is relative within each strain. Summed up: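 Each library plasmid carries Cherry plus GFP with a tiled 17-residue yeast protein peptide fused downstream, and the pooled library was carried in yeast. Mid-log cultures in leucine-free medium were sorted into four equal gates by GFP/Cherry ratio. Reads from Illumina sequencing of PCR-amplified plasmids from each gate were assigned to strains by barcodes. Per peptide, the protein stability index was computed as the summed products of gate read frequency and gate number.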

± gives the uncertainty stated by the source.

As to APTGSGKTNIALLTVLK [BRR2], the protein stability index is, setting by setting: (doa10∆) 2.88 ± 0.067; (pdr5∆) 3.07 ± 0.073; (san1∆) 3.35 ± 0.052; (ubr1∆) 2.88 ± 0.049.

For the sequence VPGMPAPIKKIIERYIK [PRP8], the protein stability index reads like this: (doa10∆) 3.37 ± 0.24; (pdr5∆) 3.23 ± 0.13; (san1∆) 2.95 ± 0.11; (ubr1∆) 3.16 ± 0.13.

As for RNRGKIHSGVLSSIESD [YMR153W/NUP53], the protein stability index worked out at 2.93 ± 0.1 (doa10∆), 2.96 ± 0.12 (pdr5∆), 3.13 ± 0.066 (san1∆) and 2.94 ± 0.087 (ubr1∆).

On to TPAELVGKFLGYVSSLV [FAS1], for which the protein stability index reads like this: (doa10∆) 1.93 ± 0.064; (pdr5∆) 2.04 ± 0.085; (san1∆) 1.73 ± 0.081; (ubr1∆) 2.06 ± 0.055.

Consider MSDAVTIRTRKVISNPL [RPS24A], for which the protein stability index is, setting by setting: (doa10∆) 2.78 ± 0.23; (pdr5∆) 2.69 ± 0.13; (san1∆) 2.97 ± 0.13; (ubr1∆) 2.23 ± 0.14.

Consider DLINILEKKGFSEVYEY [LIN1], for which the protein stability index reads like this: (doa10∆) 3.44 ± 0.17; (pdr5∆) 3.21 ± 0.29; (san1∆) 3.3 ± 0.099; (ubr1∆) 3.17 ± 0.12.

For the sequence SNEIKVTNDLDTSAEKD [SIR4], the protein stability index (doa10∆) was 3.29 ± 0.095, the protein stability index (pdr5∆) stood at 3.35 ± 0.062, the protein stability index (san1∆) is 3.26 ± 0.055 and the protein stability index (ubr1∆) came out at 3.04 ± 0.055.

For the sequence SRLTLLLRALKTNEESA [PRP8], the protein stability index reads like this: (doa10∆) 1.91 ± 0.056; (pdr5∆) 1.58 ± 0.058; (san1∆) 1.84 ± 0.09; (ubr1∆) 1.97 ± 0.044.

Regarding KYKLISRIVEIFALCIY [YML103C/NUP188], the protein stability index (doa10∆) is 1.58 ± 0.059, the protein stability index (pdr5∆) turned out to be 2.19 ± 0.055, the protein stability index (san1∆) came to 1.86 ± 0.076 and the protein stability index (ubr1∆) is 1.85 ± 0.059.

Take YNHNDGGDGRDYKGAKL [RRI1]: the protein stability index runs as follows: (doa10∆) 2.57 ± 0.13; (pdr5∆) 3.2 ± 0.088; (san1∆) 3.14 ± 0.078; (ubr1∆) 2.96 ± 0.092.

Take SEFANQNQGGAQAPFDI [ROX3]: the protein stability index was 3.28 ± 0.22 (san1∆) and 3.48 ± 0.094 (ubr1∆).

For YGLIRGLKFASFIFQYY [PRP8], the protein stability index is, setting by setting: (doa10∆) 2.23 ± 0.11; (pdr5∆) 2.52 ± 0.13; (san1∆) 2.02 ± 0.093; (ubr1∆) 2.36 ± 0.085.

Take GCVNSLISGPRNQILVS [YMR129W/POM152]: the protein stability index (pdr5∆) was found to be 1.36 ± 0.22.

In turn, LFKKITNVNPSKNFNVI [YML103C/NUP188] came in with a protein stability index (doa10∆) of 2.63 ± 0.048, a protein stability index (pdr5∆) of 2.37 ± 0.038, a protein stability index (san1∆) of 2.73 ± 0.042 and a protein stability index (ubr1∆) of 2.39 ± 0.036.

VFYQVTPEDADEEEDDE [RPL22B] came in with a protein stability index (doa10∆) of 1.84 ± 0.057, a protein stability index (pdr5∆) of 2.33 ± 0.068, a protein stability index (san1∆) of 2.63 ± 0.057 and a protein stability index (ubr1∆) of 1.99 ± 0.071.

As for IPIGHVHVIHFQHADNS [AAR2], the protein stability index worked out at 2.86 ± 0.11 (doa10∆), 2.71 ± 0.073 (pdr5∆), 2.9 ± 0.074 (san1∆) and 2.65 ± 0.05 (ubr1∆).

As for EVILVDPQHKAIRRDAR [RPL15A], the protein stability index runs as follows: (doa10∆) 2.87 ± 0.088; (pdr5∆) 3.15 ± 0.13; (san1∆) 2.78 ± 0.28; (ubr1∆) 2.97 ± 0.17.

Turning to SLTKDKSIRKDTVEEKK [SIR4], the protein stability index by setting is: (doa10∆) 3.03 ± 0.064; (pdr5∆) 3.23 ± 0.062; (san1∆) 3.1 ± 0.056; (ubr1∆) 3.12 ± 0.069.

For NESFNRRISSMPGGYFH [YAR002W/NUP60], the protein stability index reads like this: (doa10∆) 2.88 ± 0.09; (pdr5∆) 3.17 ± 0.089; (san1∆) 3.07 ± 0.099; (ubr1∆) 3.04 ± 0.043.

For the sequence FYKNKYSSKPYKVDNMT [RPN2], the protein stability index by setting is: (doa10∆) 2.44 ± 0.067; (pdr5∆) 2.84 ± 0.072; (san1∆) 2.79 ± 0.081; (ubr1∆) 2.1 ± 0.075.

Take ELMKLDGTEYVLSSVRE [MED6]: the protein stability index (doa10∆) came out at 3.36 ± 0.083, the protein stability index (pdr5∆) stood at 3.27 ± 0.08, the protein stability index (san1∆) came out at 3.16 ± 0.048 and the protein stability index (ubr1∆) was 3.15 ± 0.05.

As to RNLQMGLRNQNMVRNNN [GRR1], the protein stability index reads like this: (doa10∆) 2.62 ± 0.088; (pdr5∆) 2.72 ± 0.093; (san1∆) 2.63 ± 0.063; (ubr1∆) 2.54 ± 0.055.

Turning to TKSSKEFFNTLRKSRET [RRI2], the protein stability index is 2.63 ± 0.15 (doa10∆), 3.42 ± 0.13 (pdr5∆), 3.06 ± 0.074 (san1∆) and 2.92 ± 0.11 (ubr1∆).

With VQDCRYSLASVTLKGAK [POP1], the protein stability index is 2.35 ± 0.041 (doa10∆), 2.68 ± 0.051 (pdr5∆), 2.61 ± 0.04 (san1∆) and 2.56 ± 0.049 (ubr1∆).

LESDFVTGASQFQRLAP [PRE2] registered a protein stability index (doa10∆) of 2.88 ± 0.094, a protein stability index (pdr5∆) of 2.97 ± 0.11, a protein stability index (san1∆) of 3.17 ± 0.086 and a protein stability index (ubr1∆) of 2.87 ± 0.067.
